# Tested on: K4 kissing-loop RNA reporter
# Experiment: apparent KD of K4 kissing-loop reporter; higher = weaker reporter binding
# Conditions: Eterna round: R107
# Protocol: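 RNA-MaP round R107: designed RNA switches with theophylline, tryptophan, arginine or FMN aptamers are transcribed on-chip within common flanks. They are titrated with a labelled K4 kissing-loop RNA reporter in RNA-MaP buffer (100 mM Tris pH 7.5, 80 mM KCl, 4 mM MgCl2), without ligand or with the indicated ligand. Median apparent KD per design.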
# [1] = input ligand: theophylline 20 uM
# [2] = input ligand: tryptophan 2.4 mM
# 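Note: bound reporter read as fluorescence of individual clusters on recovered sequencing chips by microscopy, with normalized cluster intensities fitted with a binding model.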
Sequence,apparent KD of K4 kissing-loop reporter (input ligand: FMN 200 uM),apparent KD of K4 kissing-loop reporter (input ligand: arginine 13.2 mM),apparent KD of K4 kissing-loop reporter (input ligand: none),apparent KD of K4 kissing-loop reporter [1],apparent KD of K4 kissing-loop reporter [2]
GCGGCCCAGCCGGAUACCAGUGAGCCGCUGGGAACCGCGGGCCCAGAGUGAUGUUCGGGACACCCUUGGCAGCCGCCUGGGUCGC [#2 Same State - Theophylline B Attempt #20 (HarryS)],486 nM,293 nM,643 nM,301 nM,491 nM
GUUACGCAUGGAAGGAGCGCACUCCGAUUGGACGACACAGUGAUGUUGUGGUUCGUUCGAAUGCAGGUAGGUCGCCAUGUGUAAC [Ex Arginine B K4 19],159 nM,148 nM,150 nM,134 nM,148 nM
AUUCGUUUAUGUGAUACCAGACUUUGCAGUGAUGUUGCAUUUAUUUUUGAAUUUUAGUUUGUCCCUUGGCAGCACUAUUUAUUUA [JR_SSTheophyB_Sub005],44.1 nM,87.8 nM,50.5 nM,83.1 nM,42.3 nM
CGACGGAGUGAUGUUUCGUGGUAUGCUGAUACCAGAUGAAACAGCGUCCCUUGGCAGCAGCAUACGCCAAGGAUAAUAUCCUAGU [Theo B SS t6],1200 nM,611 nM,1770 nM,531 nM,604 nM
UGAUACCAGACGGCCGCCACUAGGACCGGGAGUGAUGUUCCGAAAAUUAAAUGCUCGGCCGCCACUAGGACCGGGUCUGGUAUCU [TrypBX 28 #DoubleAptamer #SwitchBubble],478 nM,253 nM,308 nM,349 nM,128 nM
UUUUUUAGUUGAGUUAUACAUAGCGGACUAUAGGAUAUCUAGAAAUAGAGAAGGAUAAGAGUGAUGUUCUUAUUCAACUAUAGUG,101 nM,87.4 nM,90.9 nM,109 nM,91.6 nM
UCCGGUCGGUGAGCCAGUGAUGUUGGUCAGAAGGAUAUCUGGCAACAGAGAAGGUCUGCAUCAGCCUAGAUAUCCUGGCGACCGG,145 nM,91.4 nM,79 nM,84.2 nM,69.2 nM
UUAGAUGAUUCAUCAAGAUUGAUGAGGAAACGAGGACCGGUACGGCCGCCACUCGAGUGAUGUUCGAGAACCUCAUCAAUCAAUU [AK4.4 Exc Tryptophan A],162 nM,150 nM,154 nM,154 nM,333 nM
GUAUAAAUAUAAGGAUAUGCAGGGAAAGUAAGAAUGGGUUAGUUGAACUUUAGUGAUGUUGAGGAAGCAGAAGGUGUAUAUGUGU [FMN B same state],650 nM,272 nM,381 nM,322 nM,319 nM
UAACUUGCAGUGAUGUUGCAAGAACUGGAUACCAGCAUGGAAACAUGCCCUUGGCAGCCAGAAGGUAUCCUCUGCAAGAGAUACA [Design1],318 nM,274 nM,311 nM,289 nM,292 nM
UCACAGUCCAAAGGAUAUUGAGUGCGCGUGCGAUUUAAGCUGAAGCCGUAGCUAGUGAUGUUAGCCCAAGAAGGUUGGUAGCCAG [theeternabot_exclusion_KL_FMN_B_16],136 nM,128 nM,140 nM,193 nM,115 nM
AUAAACUUGCAGUGAUGUUGCAAGUAAGACUAGGAUAUCAGGAAACUGAGAAGGAGUCAUCUCCUUCAACUGCAAGAAUGAAGGA [[K1]-[K2]-[F1]-[F2]-[F]'-[K]'-[F]''_Design4],147 nM,108 nM,129 nM,104 nM,133 nM
UUUUUUAAGAUAUUGACCAACCCGAAGCUACGAGGACCGGUACGGCCGCCACUCGCCAGUGAUGUUGGCGACUGGUGAAACCAUG [KL-XTryp-A24],126 nM,98.9 nM,106 nM,105 nM,185 nM
UAGUCCUAGUGAUGGUUAUCACGUGGUGGGCGAGGACCGGUACGGCCGCCACUCGACUAUGCAGUGAUGUUGCAAUCCGGACAAU [Exclusion - Tryptophan A (Freestyle 16)],319 nM,411 nM,423 nM,353 nM,116 nM
UGACUGGACUGAAGGAGCGUUCAGGUAGGUCGCUAAGGAGUGAUGUUCCAUAGAAGGAGCGAACAGGUAGGUCGCAGUCUAGUCU [ArgBS 29 #DoubleAptamer #SwitchBubble],139 nM,169 nM,163 nM,190 nM,102 nM
UAUUUAGUGACGGCCGCCACUAUUGUGAUUUAAUUGUUUGAGUGAUGUUUUGAUGUUUGAUUUUGUAGGACCGGGUUAUGUGUUA [tyttmullin],1020 nM,745 nM,827 nM,791 nM,749 nM
UGUCAUUGGUCGGCCGCCACUCCAUAAAGAGUGAUGUUCUAAAAGACGGAUCGAAAGAUCUGUCGGAGGACCGGGACCGAUGACU [FiskerMod 4 - Jieux - Same State - Tryptophan B],1190 nM,555 nM,1090 nM,549 nM,243 nM
AGGGAUGUUAAAGGAUAUAGAAAGUGAUGUUAGAAAGUGAGUGAUGUUGAUGUAAGUGAUGAUAUGUUAGAAGGUUAACAAAACG [abc],212 nM,111 nM,192 nM,169 nM,144 nM
GUCUCGAGUGAUGUUCGGGUCGUUUGGGAAGGAGCGCCCGGAAGGGCAGGUAGGUCGCCCGGACCGCGCGGGCAACCGCGCGGCC [#2 Same State - Arginine A Attempt #12 (HarryS)],228 nM,162 nM,217 nM,212 nM,192 nM
CGCAGUGAUGUUGCGAGUAGAUACAGGGAAGGAGCGCGGUAGUACGCAGGUAGGUCGCCCACGCAGUGAUGUUGCGUCAUAGGGU [Exclusion Arginine A GF6],103 nM,93.1 nM,91 nM,98.6 nM,95.7 nM
GGGAAGGGACACAAGGAGGAACGAAGGGAAGGAGCGCCGGAGGAGGCAGGUAGGUCGCCCAACCAGUGAUGUUGGAAUUUAAUCC [Default title],242 nM,125 nM,287 nM,114 nM,196 nM

Sequence,apparent KD of K4 kissing-loop reporter (input ligand: FMN 200 uM),apparent KD of K4 kissing-loop reporter (input ligand: arginine 13.2 mM),apparent KD of K4 kissing-loop reporter (input ligand: none),apparent KD of K4 kissing-loop reporter [1],apparent KD of K4 kissing-loop reporter [2]
CGGGAAUUAGGUAUCGUCGAAAGCAAGAACCGAGGACCGGUACGGCCGCCACUCGCACCAGUGAUGUUGGUACAUUUGGUAUCCG [theeternabot_sameState_KL_Trp_A_31],115 nM,112 nM,134 nM,103 nM,132 nM
CAACGAGUGAUGGUCGUUGACGGCCAUCCCGAGGAUAUGGGAUUAUCCAGAAGGCGGGAUCGCCGGGAGUGAUGUUCCCUGAUCA [Same State FMN A GF 14],139 nM,181 nM,168 nM,300 nM,151 nM
ACGUCUCGUAAACUCGUGGUUUCGAUCGAUACCAGUAGCGAGAGUUACCCUUGGCAGCGACAUGAGUGAUGUUCAUGUACGAAGA [KL-XTheoA2],99.3 nM,88.5 nM,93.1 nM,89.8 nM,90.3 nM
UUCUUGAUGGAAACAUCGAGAAUUACUGAUACCAGUAUCGAUAGAUACCCUUGGCAGCAGAAUCAGUAAUAACGAGUGAUGUUCG [Ex Theophylline A K4 4],313 nM,254 nM,304 nM,321 nM,243 nM
CAUUCAGUGAUGUUGGAAGGCGAGCGGGAUACCAGCGGAGACUCACGCCCUUGGCAGCCCACAUAUCCCAGGUAGAUAAUAGUUC [Same State - Theophylline A (Freestyle 6)],237 nM,139 nM,203 nM,189 nM,188 nM
AGUGAUGUUGUGUGAUGUUAGUGAAGUGAUCGAGGACCGGUACGGCCGCCACUCGAGUGAUGAGUGAGUGAUGUUUGUUUAGUGG [#17 K4 Tryptophan A Same State],258 nM,124 nM,206 nM,186 nM,139 nM
CGCAAGCAGCCAGUGAUGUUGGCCGCCUUGCGAGGACCGGUACGGCCGCCACUCGAAGGCGGCUACUGAUAAUCCGUCUAACGGA [KL-XTryp-A15],107 nM,85.4 nM,102 nM,92.4 nM,111 nM
AGACUACUGAUAGGAUAUAACAUACUACCUCGUAUACCAAAGGUAUACGAGGCCCUUCUAGUGAUGUUAGAAGGGUCGGUAGUCA [Omei KL FMN B Exc B v5],93.5 nM,76.4 nM,79.5 nM,81.2 nM,83.2 nM
AAAAUAAUCCAGUGAUGUUGGUAUACAGAUACCAGCGACGAAAGUCGCCCUUGGCAGCUGUGGACGUACAAAAUAAGUACGUCCU,934 nM,972 nM,1210 nM,592 nM,813 nM
UGUCAUUGGUCGGCCGCCACUAGAAGGUCAAAGACCAUAGAGUGAUGUUCUAAGACGAAAGUCACUAGGACCGGGACCGAUGACU [TrypBS 1 #SwitchBubble #K4Middle],744 nM,1080 nM,899 nM,946 nM,207 nM
GGGAUGUAGUGAUGUUAUAUUAGAUGUAGACGAGGACCGGUACGGCCGCCACUCGUGAUGGCUGCUAGCACGUUUCGAUGUUUGC [ExTryptoA.Cr],399 nM,426 nM,428 nM,462 nM,309 nM
AAGGUUGUGCAUGGGAGUGAUGUUCCCAAGCAGGAUAUCGCUCACGCGAGAAGGGCUAGCACAACCGCUCAAGAAACUUGAGCAA [Omei KL FMN A SS C v5],121 nM,118 nM,147 nM,132 nM,120 nM
ACGGAUACGCGAGAUACCAGAGGCAUUCGCCAGCGACCAUAAUGUCCCGAGAGUGAUGUUCUCCCUUGGCAGCUCAUGGUUAAUU [theeternabot_exclusion_KL_Theo_B_2],484 nM,400 nM,468 nM,570 nM,385 nM
AAUGAUGAUUGACACAUUUACUAAAAGGAAGGAGCGGCGAUGUGGCCAGGUAGGUCGCCUUUUAGCAGUGAUGUUGCUAUAUGUU [JR_Nu_ExcArginiA_Sub026],84.5 nM,108 nM,111 nM,152 nM,70.4 nM
GGAGUUACCUGGGAUACCAGUCGGAGUCCCAGAGCACAGAGUGAUGUUCUGGGAUGUUUCGGCCCUUGGCAGCUCUGGGACUCCC [#2 Exclusion - Theophylline B Attempt #13 (HarryS)],482 nM,254 nM,142 nM,402 nM,222 nM
GGAUAGGAAAGAGGAUAUGGGCUAGGCAAGAAUAACUUGUCUAGCAAAUCCAUGAGGAGUGAUGUUCCAGAAGGCUUUCCUAUCG [FmnBX 1 A9+U77],995 nM,141 nM,160 nM,157 nM,126 nM
CGCUGGAGUGAUGUUCCAGCUUCUACGGAUACCAGCCACGCCAGCGGCCCUUGGCAGCCGCAAAUUGCAGUGAUGUUGUGAUGCC [Same State Theophylline A GF 4],314 nM,278 nM,312 nM,312 nM,283 nM
CGCCGAAAGGCGAGCGCUCCCACUCCGGAAGGAGCGCCCGAAAGGGCAGGUAGGUCGCCGGAGUGAUGUUCCGGUGGAGGGCUCG [#2 Exclusion - Arginine A Attempt #30 (Inspired by Omei)],177 nM,167 nM,817 nM,212 nM,296 nM
AGUGUGCAAAAGCACACUCAGAACAAGGACAAGGAUAUCUACUAAUAGAGAAGGUGUCCUUUCCUUAGUGAUGUUAAGGAACUGA [Omei KL FMN A SS D v5],278 nM,524 nM,640 nM,680 nM,615 nM
UGUGUUUACCUGACUCAGUGAUGUUGAGAAGGAGCGUGCGAACGCACAGGUAGGUCGCUCAACCUAAAUUCAGGUGAGCACUAAA,430 nM,443 nM,499 nM,611 nM,398 nM
AAUCGCGAGUCAGAUACCAGUUGGCUCGAGAGUCAGUGAUGUUGAUGUAAAUCUUAGGCGAACCCUUGGCAGCUGUCACCAGUCC [theeternabot_sameState_KL_Theo_B_27],404 nM,326 nM,354 nM,346 nM,325 nM
